Laboratory results taken from patent US5739291A, “Glutamate receptor antibodies” (The Salk Institute For Biological Studies, priority 1995, dated 1998).

Target: T1, homomeric GluR6 receptor (Rattus norvegicus, UniProt P42260, I567V/Q621R/Y571C)
T1 construct: A 4559 base pair cDNA encoding a protein of 884 amino acid residues was engineered from RC11 and RC27; expressed in transfected cells; host or cells: Xenopus oocytes injected with in vitro transcribed GluR6 RNA
Test: Homomeric GluR6 ion channel in Xenopus oocytes injected with in vitro transcribed RNA
Format: cell-based

T1 sequence (P42260 with tags, fused parts or gaps I567V/Y571C/Q621R): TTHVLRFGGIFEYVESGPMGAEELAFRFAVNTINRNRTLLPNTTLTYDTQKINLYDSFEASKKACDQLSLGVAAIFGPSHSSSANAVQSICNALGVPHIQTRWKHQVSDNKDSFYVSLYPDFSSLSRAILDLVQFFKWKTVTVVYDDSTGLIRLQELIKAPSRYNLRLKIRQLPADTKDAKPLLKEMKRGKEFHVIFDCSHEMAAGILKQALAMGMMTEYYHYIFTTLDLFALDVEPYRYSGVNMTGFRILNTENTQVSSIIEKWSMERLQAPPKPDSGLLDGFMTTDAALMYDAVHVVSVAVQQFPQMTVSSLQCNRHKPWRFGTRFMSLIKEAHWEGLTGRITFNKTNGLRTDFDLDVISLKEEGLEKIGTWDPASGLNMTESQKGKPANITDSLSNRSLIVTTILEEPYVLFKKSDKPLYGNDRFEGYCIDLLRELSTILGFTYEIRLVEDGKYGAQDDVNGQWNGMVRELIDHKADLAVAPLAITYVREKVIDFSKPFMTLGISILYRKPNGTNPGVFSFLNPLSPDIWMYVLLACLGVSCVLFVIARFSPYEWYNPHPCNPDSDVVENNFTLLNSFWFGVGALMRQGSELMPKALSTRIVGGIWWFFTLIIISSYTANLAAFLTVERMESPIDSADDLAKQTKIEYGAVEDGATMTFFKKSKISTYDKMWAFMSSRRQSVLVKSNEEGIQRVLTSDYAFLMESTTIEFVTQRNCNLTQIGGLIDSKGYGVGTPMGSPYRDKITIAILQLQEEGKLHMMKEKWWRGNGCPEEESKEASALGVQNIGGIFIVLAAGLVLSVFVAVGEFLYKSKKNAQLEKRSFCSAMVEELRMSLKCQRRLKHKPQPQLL

B1: concanavalin A (protein)
chain: STHETNALHFMFNQFSKDQKDLILQGDATTGTDGNLELTRVSSNGSPQGSSVGRALFYAPVHIWESSAVVASFEATFTFLIKSPDSHPADGIAFFISNIDSSIPSGSTGRLLGLFPDANVIRNSTTIDFNAAYNADTIVAVELDTYPNTDIGDPSYPHIGIDIKSVRSKKTAKWNMQNGKVGTAHIIYNSVDKRLSAVVSYPNADSATVSYDVDLDNVLPEWVRVGLSASTGLYKETNTILSWSFTSKLKSN
notes: concanavalin A, used to decrease receptor desensitization
- effect on desensitization (10 μM for 5 minutes): efficiently decreases desensitization
- increase of current elicited by kainate and glutamate compared to peak current before treatment (equimolar agonist concentrations): 75 to 150 fold
